Earlier results in paper PMC10950897, “VCF1 is a p97/VCP cofactor promoting recognition of ubiquitylated p97-UFD1-NPL4 substrates” (Nature Communications, 2024).

Target: p97 (Homo sapiens) (UniProt P55072)
Sequence (P55072 2-806): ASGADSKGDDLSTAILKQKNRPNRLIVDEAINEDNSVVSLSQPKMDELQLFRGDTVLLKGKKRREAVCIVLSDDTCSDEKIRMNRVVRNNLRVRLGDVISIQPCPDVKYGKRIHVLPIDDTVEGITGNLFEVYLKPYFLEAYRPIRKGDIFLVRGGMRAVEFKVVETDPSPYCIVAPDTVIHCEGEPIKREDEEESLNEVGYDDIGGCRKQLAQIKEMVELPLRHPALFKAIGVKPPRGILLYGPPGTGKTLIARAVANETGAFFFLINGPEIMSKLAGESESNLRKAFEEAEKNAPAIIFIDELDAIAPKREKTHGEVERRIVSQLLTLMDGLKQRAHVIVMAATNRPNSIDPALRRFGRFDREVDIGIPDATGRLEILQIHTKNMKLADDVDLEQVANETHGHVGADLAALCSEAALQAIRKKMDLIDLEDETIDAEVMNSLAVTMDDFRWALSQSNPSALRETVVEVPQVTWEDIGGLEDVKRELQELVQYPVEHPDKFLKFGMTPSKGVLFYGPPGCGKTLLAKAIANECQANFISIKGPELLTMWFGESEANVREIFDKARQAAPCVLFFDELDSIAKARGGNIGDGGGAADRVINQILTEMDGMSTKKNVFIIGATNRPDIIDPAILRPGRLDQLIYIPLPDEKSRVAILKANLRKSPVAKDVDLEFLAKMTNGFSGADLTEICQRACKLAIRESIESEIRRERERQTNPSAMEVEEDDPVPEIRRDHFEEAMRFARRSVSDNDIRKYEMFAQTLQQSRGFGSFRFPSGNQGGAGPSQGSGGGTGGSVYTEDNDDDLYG

Sequence of p47 (Q9UNZ2 whole entry): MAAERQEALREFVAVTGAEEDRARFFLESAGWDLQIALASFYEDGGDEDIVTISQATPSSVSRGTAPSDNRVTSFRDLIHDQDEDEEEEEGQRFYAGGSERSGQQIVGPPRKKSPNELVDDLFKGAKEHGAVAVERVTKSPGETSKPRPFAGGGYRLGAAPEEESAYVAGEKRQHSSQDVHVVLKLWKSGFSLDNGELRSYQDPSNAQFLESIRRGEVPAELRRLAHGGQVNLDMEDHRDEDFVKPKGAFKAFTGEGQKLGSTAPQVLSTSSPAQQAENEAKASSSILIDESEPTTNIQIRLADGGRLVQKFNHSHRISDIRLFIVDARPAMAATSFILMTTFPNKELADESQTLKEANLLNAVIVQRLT

For p47 (from UniProt Q9UNZ2), the Kd is given as 350 nM.
